The series is described as follows: label from the status in PepcDB records.
In the case of “MTSQVANPPVQSIRLLFSALLLVMLLSALDQTIVSTALPTIVGELGGLDKLSWVVTAYILSSTIAVPLYGKFGDLFGRKIVLQVAIGLFLVGSALCGLAQNMTQLVLMRGLQGLGGGGLMVISMAAVADVIPPANRGRYQGLFGGVFGLATVIGPLIGGFLVQHASWRWIFYINLPLGLFALLVIGAVFHSSNKRSQHQIDWLGAIYLSMALLCIILFTSEGGSVHAWNDPQLWCILAFGIVGIIGFIYEERMAAEPIIPLALFRNRSFLLCSLIGFVIGMSLFGSVTFLPLYLQVVKEATPTEAGLQLIPLMGGLLLTSIISGRIISRTGKYRLFPILGTLLGVTGMVLLTRITIHSPLWQLYLFTGVLGAGLGLVMQVLVLAVQNAMPAQMYGVATSGVTLFRSIGGSIGVALFGAVFTHVLQSNLQQLLPEGAVLPPGMNPVAVQHLPADIRLDYLDAFGAAIHAAFLMAAGIMAVAFVLSWLLKEAPLKTATH”, the protein production result was “failed”. Take “TSLEEITKAIMADSQNKVFTEKNIEPLFAAPKTARINIVGQAPGIKAQESRLYWNDKSGDRLREWMGVDYDTFYHSGYFAVIPMDFYYPGKGKSGDLPPRKGFAQKWHQPILDLLPDIQLTILIGNYAQKYYLHQKSSVKLTDTVAHYKKYLPDYFPLVHPSPRNQIWMSRHPWFEAQVVPDLKKIIQQII”: the protein production entry is “not failed”. As to “MKVLLIQPPSSTAFMDKVYMYEPLGLEYLGAGLQEDGHEVLLLDARLEPDFEKAFHSFQPDIVGITGYTNHLNIVKAIAARFKSINPEVFIIVGGHHATVKPADYNDQAIDLIIIGEGVFTLRQVLKHKESLLPFEDIPGLAIPGAVMKFTAERPYTPLDDLPFPDRSLTARYRNHYFSDWMKPIASIRTSLGCFGRCNFCALWSITNGKYLQRNPERIVAELQGIQEEIVFFCDDESMCDTRRMDQLADLIQEAGIRKKYFLYGRVDTIVKHPELFAKWKNIGLIQVFVGFESFSDERLQGLNKNITVAQQEEAVKILNDLNIDIYASFVIDPSFTRQEFTQLIAYTRKLNIAYAALSVLTPLPGTALYEQNKDRLLTHDPKFFDFMHTVLPTALPLKQFYSEYARTLMKATPIPRYFRFIAKFDRQRRLSTMKELYGVVGDVRKGYQWHQAKES”, the protein production result is “failed”.

With “MMIQGHLFHQDRKRTFRIVEPFGSTTDALIYFHGSQQSGSVGRSFTNRTFDPLPFMVVYPDGVDQHWNDARLGLDENTRHLGIDDVGFFVKLATHLGNTYGIKRIFIVGYSNGGQMVLRLMHEVPKMLSGAATIASNMPVAENTLPQVKTFKTHPVPYLAMAGTADTFSPYEGGDAGIGREHRRGVGMSAFDSAAYIAARNGLTEHRHDVIDDVVSIDTWDGENPVEFWTLNGIGHLVPSGKTYPEFLGPSTTSVIAAEEIGKFFDGVRRR”, the protein production entry was “failed”. Regarding “MGQIPPQPVRRVLPLMVVPGNGQKWRNRTETEEAMGDTYRDPVDHLRTTRPLAGESLIDVVHWPGYLLIVAGVVGGVGALAAFGTGHHAEGMTFGVVAIVVTVVGLAWLAFEHRRIRKIADRWYTEHPEVRRQRLAG”, the protein production entry is “failed”. “GASDGGGSIRIPASFSGLIGLKPSRGSMPVGPEGWRGWQGASIDFALTISMRDTKALFYGLRGSHSGAPYQAPLAEWQTHPKKQRLKIALCTASPIGSLISPEATQAAKQAADFLAAAGHEIIEIPYPVDGAALIRSYYQMNGAETTAMMNSIQQGLGRPIRKEEIESFSWTMHQFGQKIPAATYVHSLQLWDQAAVTMEELFQKFDLFLSPTTAFSAPKINEDLQSEHIRQRMAQAAELTEAELAELIYDYFDKSLQLTPYTQLANLTGQPAISLPTHVTATGLPLGIQLLAARGREDLLFQVGEQFEQEGK”: the protein production result is on record as “failed”.

Consider “MKENKLDYIPEPMDLSLVDLPESLIQLSERIAENVHEVWAKARIDEGWTYGEKRDDIHKKHPCLVPYDELPEEEKEYDRNTAMNTIKMVKKLGFRIEKED”, for which the protein production entry was “not failed”. As for “MMSFSQIINDFIQSFSSINLGGNFKEIVTNPLTILTLIGVLIILVLLIKAKDIKFDAKMLTTIGIALALTAVLNMLKIYKFPQGGGITLGSMIPIILIAYAYGPLVGMLTGFLFGIISLFIDPYILHPVQVLFDYPIPYMALGVAGFFKNHRISGAVVAIFLKFLAHFISGVVFFGSFAPEGMSPILYSFLVNGSLIGADGLICVVLLGILPVNRLIKAISSKSVTSKYAS”, the entry is “failed”; as for “LAEKAGIGVWSYEPETQRIDWAPDALALMGVSPEDIATPELFLARLPENHRAEVQAAFVHAARTGEGGTLEYRLRANDGRWFTLRATYRTEARPGSGFALKGVSQNITDVARS”, “failed”. With “MNSDPTRERILHGLITLYILKELVKRPMHGYELQKSMFETTGQALPQGSIYILLKTMKERGFVISESSVNEKGQQLTVYHITDAGKKFLCDHSQALQLARKIIDDLLSTVDIIENRN”, the protein production entry is given as “not failed”. As for “MHELSISRHIAAPPGKVWDVLANRQEEWWCPRPWWITLIAQERRPGGRSAMVMHGPDGEEMPQEGIFLAWDEGHRFVTTDAVTADFLPAGPFMVGIWEVEPEGEGTRYTASARHWTEEAMREHAEMGFEAGWNACADQLQALCEAD”, the protein production result is on record as “failed”. As for “MDRMDKAAKINIINANVRNAQTGDYYYNPYKIVNKTFTDTDGKQVTLKIGITGVLPTQILVWDKANLEGKVTVDDPMEAVKTIVPQMKAAGADFILVAAHSGIGDNEYTKNEENEGYQIAGIEGVDAVATGHSHADFPNGDGTSFYAKYPGVDDVNGLINGKPVVMAGKFGDHLGIMDVKLTYTDGKWKVVNSKAKLEKIDTKSDIADKALIDMAAHDHDGTILTMFVRKLVRPLPQSLAILLKFRTIHLFKS”, the entry is “failed”; as for “MAEKSQIPDNNNNTSSSAKKPTPEIGSGSGKRYYNPPESVNPDQATLREQWKFAIRQYSKWYSHAWGTAILAGGFFFGLGWIIKGSNPLPSLQSSSKPRDEEK”, “failed”. On to “EYGYEDLRESSNSLLNHQLSEIDQARLYSCLDHMREVLGDAVPDDILTEAILKHKFDVQKALSVVLEQDG”, for which the protein production result is on record as “not failed”. With “MSLDNLDVICIGAAIVDIPLQPVSKNIFDVDSYPLERIAMTTGGDAINEATIISRLGHRTALMSRIGKDAAGQFILDHCRKENIDIQSLKQDVSIDTSINVGLVTEDGERTFVTNRNGSLWKLNIDDVDFARFSQAKLLSLASIFNSPLLDGKALTEIFTQAKARQMIICADMIKPRLNETLDDICEALSYVDYLFPNFAEAKLLTGKETLDEIADCFLACGVKTVVIKTGKDGCFIKRGDMTMKVPAVAGITAIDTIGAGDNFASGFIAALLEGKNLRECARFANATAAISVLSVGATTGVKNRKLVEQLLEEYEGEGHHHHHH” the entry was “not failed”. For “MATEISTRGRQRAIGHEEYSLYSSLSEEELLQMAIEQSLADKTRGPTPAEASASSQTNHQPGHFHPWTRSPSSPENPPARAPLGLFQGVMQKYSSNLFKTSQMAAMDPVLKAIKEGDEEALKIMIQDGKNLAEPNKEGWLPLHEAAYYGQLGCLKVLQQAYPGTIDQRTLQEETALYLATCREHLDCLLSLLQAGAEPDISNKSRETPLYKACERKNAEAVRILVRYNADANHRCNRGWTALHESVSRNDLEVMEILVSGGAKVEAKNVYSITPLFVAAQSGQLEALRFLAKHGADINTQASDSASALYEASKNEHEDVVEFLLSQGADANKANKDGLLPLHVASKKGNYRIVQMLLPVTSRTRVRRSGISPLHLAAERNHDAVLEALLAARFDVNAPLAPERARLYEDRRSSALYFAVVNNNVYATELLLLAGADPNRDVISPLLVAIRHGCLRTMQLLLDHGANIDAYIATHPTAFPATIMFAMKCLSLLKFLMDLGCDGEPCFSCLYGNGPHPPAPRPGRFHDAPVDDKAPSVVQFCEFLSAPEVSRWAGPIIDVLLDYVGNVQLCSRLKEHIDSFEDWAVIKEKAEPPRPLAHLCRLRVRKAIGKYRIKLLDTLPLPGRLIRYLKYENTQ”, the protein production result is “failed”. For the sequence “MTRSKKFIIMITTVIVIIAFIFLALFAWKIYAERNYNNTNIREAAQFNPLIRETDYYVQVSDPLKKNGKNQVGAYTYMTDGFDKDGVGHTVTFNGMKKLKKGAYLKVSLFLGEAKSYNEISKDKVPHKPLKKLEMQQLEHHHHHH”, the protein production result was “not failed”. For the sequence “MPERIIREDVKIGDGMMIDSDSQDDCVTKAVRTVEQKLTTEEHEIVMVYDYVSGSSGSSSTPSFTLTPYSPISYESDQEDYEDPPISPYISEAVVHSPDSTFALLWEGTSPILHFAADMRADAIPSVGDGTTSGIHIPYCFIYGEDGRYPQDCRF”, the protein production result is on record as “failed”.

Turning to “MSLNLTIGTSKFNPPFEVWSGNNSSLYGFDIDLMQEICRRLHATCTFEAYIFDDLFPALKNREVDLVIASMIITDERKKHFIFSLPYMESNSQYITTVDSKISTFDDLHGKKIGVRKGTPYARQVLSENRNNQVIFYELIQDMLLGLSNNQVDASLMDYEAAKYWMASEPYAYKLIGKKYKLIGKKISIGEGYSIMANPDQFVLIKKINKILLEMEADGTYLRLYSEYFEGHHHHHH”, the protein production entry is reported as “not failed”.

In the case of “MNVYDLIAEHYSGLFPLETEKLEFIQHLCPLPGRLCDAGCATGELVMGLYQKGYDICGLDLNEKMIGIAEKKASCIRKTGELMFYHADIADIMQFGKFKGVLCFGNTLPHLRDEEALRRFFGSVYRSLEEHGIFIVEVLNYDRILDDKKMDFKDKETKDFIFKRNYDFLPGGNIRFTIEFTDKQRSTVGSDFTVLHPLKRQMLLALFKQTGFKSVSAYSDYSFTESRAEDYAVVYTANK”, the protein production result was “failed”. Regarding “MCKLIKCELLKLKSMLGAILAFFFPLLLVSIGLLNIYTGSVKISGTSEMWNAIYVQSSSLYGGILFPVFLSALVSLQWRVEFKNNNINNILITDKSHKDIYLSKIFSTFVIAFINIILYIIIIFISVKVLLPKETVKAFIFYGPIIGLLFSLPLICIQHFLSMNFKNFALPLVIGIVLSLPNFVASCYSFSTFIPYSYICKGMFFNVKNSLNVECPIYIFILTALIFVASVSLGTKVFKNKEFR”, the protein production result is reported as “failed”. Regarding “MQDSKIPPFSEAKRMKIPTPKQPLTQLPPRIGKKVSNRSKSNQVHAISHQLEMSPNSDSSPGNEYRALRRKYLLLEEDSFALERELKEAEDEVKALEDEKLELLDKLVVMEGLVDP”, the protein production entry is on record as “failed”. With “MLCCMRRTKQVEKNDDDQKIEQDGIKPEDKAHKAATKIQASFRGHITRKKLKGEKKDDVQAAEAEANKKDEAPVADGVEKKGEGTTTAEAAPATGSKPDEPGKAGETPSEEKKGEGDAATEQAAPQAPASSEEKAGSAETESATKASTDNSPSSKAEDAPAKEEPKQADVPAAVTAAAATTPAAEDAAAKATAQPPTETGESSQAEENIEAVDETKPKESARQDEGKEEEPEADQEHA” the entry was “failed”. As for “MTRYLALDAFRGITIALMILVNTPGTWSHVYAPLLHAEWDGATPTDLVFPFFLFIIGSAMFFSFKKSNFSASPEQFRKIIKRGFIMFFIGFMLNVIPFTVNAEDWRIMGILQRIGIAYTVAACLVLTLNRTGVFIASAVILLAYWALLLSMGEGALTIEGNIIRQLDLAVFGANHMYTMRGVAFEPEGLLSTIPAIVNMLLGFELTRYLTSIEDKRSSVIKLTLIGGLAVGFGALWGLVLPINKSLWTPSYVIYSTGFACLLLAAFIWLIDIMKQVKLAEPLLVYGTNPLFVYVLSFLVVTMYLNINVGDVSMYAWLYKQLSGVFTPKLASFIFAFSHVAFFWYVSLKLYQRKIFIKI”, the entry is “failed”; as for “MTFTSSFHYQALPMRVSFEVGAVTKIGEELDRLGLSRALVLCTPEQKHLADLVMDHLGDRGAGIFDQARMHVPVETADRARDRARKLGADSCVVIGGGSSIGLGKAIALEHGLPIIAIPTTYAGSEMTPIWGLTRDGRKQTGRDAKVLPQSVIYDPQLTATLPAEISAASGLNAVAHAVEALYAPDASPIISLMAEEGVRAFAESLPAVVADGNDLDARSKALYGAWLCGACLGATTMSLHHKLCHVLGGSLDLPHAQTHAIVLPHVLGYNESHAPAARAALQRALGTDGDPSTALWELEQQLQIPHSLEELGVRETQLPAVIDEVLSNPYSNPTPVTEDGLRHLLGQALRGDRPTRR”, “failed”.

The values above are taken from a protein production outcome set (Wang et al. 2014).
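Also: failed if final PepcDB status was selected cloned or expressed and not failed if soluble or beyond.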
